Our source for the fold-increase over control of cell proliferation of EML cells (total DNA, 5 days), 10 nM SCF and fold-increase over control of cell proliferation of EML cells (total DNA, 5 days), 50 nM SCF values is patent publication US20090275130A1.

In the experiment the target is receptors for SCF (kit) on EML clone 1 cells (UniProt P05532). Put plainly: cell-based or functional assay.
Sequence of UniProt P05532 (P05532 25-979 limits assumed): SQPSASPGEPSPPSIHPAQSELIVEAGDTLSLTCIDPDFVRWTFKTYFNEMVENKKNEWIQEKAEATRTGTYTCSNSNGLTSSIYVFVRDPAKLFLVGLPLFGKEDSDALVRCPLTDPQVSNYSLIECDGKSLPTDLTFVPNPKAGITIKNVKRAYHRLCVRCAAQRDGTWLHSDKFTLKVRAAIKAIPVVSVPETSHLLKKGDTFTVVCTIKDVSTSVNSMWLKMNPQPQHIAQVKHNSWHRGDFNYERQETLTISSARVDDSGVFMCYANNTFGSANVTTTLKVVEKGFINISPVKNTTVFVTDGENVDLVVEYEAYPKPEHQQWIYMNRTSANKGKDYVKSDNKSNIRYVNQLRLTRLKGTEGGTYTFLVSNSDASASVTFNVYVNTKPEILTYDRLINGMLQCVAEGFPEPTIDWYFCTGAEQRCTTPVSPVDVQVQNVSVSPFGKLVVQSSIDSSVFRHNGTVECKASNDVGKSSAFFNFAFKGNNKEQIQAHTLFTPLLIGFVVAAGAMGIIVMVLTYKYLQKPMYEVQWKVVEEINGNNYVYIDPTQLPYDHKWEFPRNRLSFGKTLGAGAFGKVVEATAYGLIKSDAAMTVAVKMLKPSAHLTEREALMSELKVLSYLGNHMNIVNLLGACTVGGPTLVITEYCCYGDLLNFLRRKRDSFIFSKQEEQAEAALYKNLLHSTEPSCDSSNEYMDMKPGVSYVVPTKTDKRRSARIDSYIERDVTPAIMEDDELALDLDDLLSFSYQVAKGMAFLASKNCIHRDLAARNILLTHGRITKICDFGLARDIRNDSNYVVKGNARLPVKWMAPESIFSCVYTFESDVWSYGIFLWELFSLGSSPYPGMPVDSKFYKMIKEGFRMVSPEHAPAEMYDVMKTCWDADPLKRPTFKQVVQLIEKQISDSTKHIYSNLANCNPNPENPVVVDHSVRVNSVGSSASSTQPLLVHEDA

With Stem Cell Factor (SCF) (ligand), the fold-increase over control of cell proliferation of EML cells (total DNA, 5 days), 10 nM SCF was determined as 1.25 fold and the fold-increase over control of cell proliferation of EML cells (total DNA, 5 days), 50 nM SCF turned out to be 2.4 fold.
